# Experimental data: US12194082B2, “Compositions and methods for treatment of homocystinuria” (THE REGENTS OF THE UNIVERSITY OF COLORADO, priority 2016, dated 2025)
# Tests used:
# [1] = system: Hcy, Cys; assay: Continuous administration by ALZET osmotic pump in HO mice; format: in vivo; details: ALZET Model 2004 or 2006 pumps
# Experimental: ALZET® osmotic pumps provide steady, controlled delivery of the 20NHS PEG-htCBS C15S for a prolonged period of time in fresh and naïve HO mice. The htCBS C15S PEGylated with ME-200GS was administrated using four different models of micro-osmotic ALZET® pumps, which continuously dispensed a volume of enzyme per hour instead of repeated subcutaneous injections: Model 1002 (0.25 μl/h), Model 2002 (0.5 μl/h), Model 2004 (0.25 μl/h), and Model 2006 (0.15 μl/h).
# For pain relief, pre- and post-operatively, animals were also administered TYLENOL® (2 mg/ml) in water bottles ad libitum for 48 hours before and after surgery for implantation of the ALZET® pump. In addition, the animals received 5 mg/kg of carprofen subcutaneously every 24 hours, and for 48 hours postoperatively. For anesthesia during surgery, 5% isoflurane was administered by inhalation and maintained at 2-3% during surgery. While mice were anesthetized, they each received a medical grade ALZET® osmotic pump implanted under sterile conditions in a biological safety cabinet. Pumps were implanted subcutaneously in the loose skin area on the ventral side of the neck. Prior to implanting the pump, the mice were shaved and the skin area was prepped with BETADINE®. Pump implantation required a small surgical incision (5 mm) made with sterile scissors. […]
# [2] = system: Hcy, Cys; assay: Plasma metabolites in the I278T facial alopecia study; format: in vivo, I278T mice; details: 3 times per week, 24 hours after injection
# Experimental: Plasma metabolites homocysteine, cystathionine and cysteine were determined by stable-isotope-dilution liquid chromatography mass spectrometry as previously described in (Allen et al., 1993, Metabolism, 42: 1448-1460). Measurements of total non-protein bound homocysteine and other aminothiols as well as of amino acids in tissue were performed as described in (Maclean et al., 2010b. Mol. Genet. Metab. 101, 153-162). Metabolites were determined by stable-isotope-dilution liquid chromatography mass spectrometry.
# The second group (n=3; 2 males, 1 female) was continuously injected with 7.5 mg/kg of 200MA0B PEG-htCBS C15S administered subcutaneously from 3 W of age until 41 weeks of age. Weight was initially monitored weekly. Physical look was recorded before the experiment and was monitored weekly or bi-weekly after the initial 6 W injection regimen. Metabolite levels were checked before the experiment and 24 hours after the last injection of initial 6 W injection regiment and then followed weekly or bi-weekly.
# The I278T mice, which were at least 120D (W17) old and had visible, fully developed facial alopecia, were split into 2 groups. […] Metabolite levels were determined prior to the treatment initiation and measured during the study 24 hours after the injection, and weight and physical look were initially monitored weekly, and later bi-weekly.
# [3] = LC/MS/MS C15S activity assay of monkey plasma samples; format: in vivo, cynomolgus monkey
# Text: The bioanalytical method developed using LC/MS/MS for the determination of cystathionine M+4 as product of the CBS activity using cystathionine M+8 (^13C2D6) as an internal standard has been developed and validated for both monkey and human plasma samples and thus can be used to determine CBS activity in samples from pharmacokinetic and toxicology studies as well as clinical trials. The enzymatic assay was essentially performed as described in Example 1 with the following modifications. Deuterated D,L-homocysteine M+4 was used to initiate the reaction with unlabeled L-serine in the reaction mixture. After 30 min incubation at 37° C., the enzymatic reaction was stopped by acidification using 6N HCl and labeled product of the reaction (cystathionine M+4) was extracted using EZ:faast kit (Phenomenex, USA). Briefly, 50 μl of sample (calibration standard, QC sample or enzymatic reaction) was mixed in tube on ice and protected from light with 100 μl of internal standard solution (cystathionine M+8, 0.25 ng/μl) and 250 μl water. The mix was extracted with MCX cartridge columns (Waters). Eluted medium (6N ammonia in methanol) was evaporated to dryness at 45° C. The dry residue was dissolved in eluent medium of the EZ:faast kit, derivatized and liquid-liquid extracted following the kit manufacturer's protocol. The solid phase extraction was automatized with extraction plates to increase throughput and save time. Measurable concentrations of cystathionine M+4 were observed regardless of origin of the enzyme (htCBS C15S or C15S/ME-200GS present in plasma samples or controls or traces of endogenous monkey/human CBS in plasma samples). Much attention was paid to the calibration range since the incurred determinations were in the higher part of the concentration range qualified (5.00 to 1500 nM).
# Tables 12-14 below show the comparison of C15S/ME-200GS specific activity determined by LC/MS/MS using D,L-homocysteine M+4 as a substrate and by radiometric assay using L-[…] as a substrate. The enzyme's specific activity is presented in mU/μl. The “n.d.” stands for “not determined”.
substance,measurement,setting,value
20NHS PEG-htCBS C15S: htCBS C15S PEGylated with ME-200GS PEG (20 kDa linear NHS ester-activated PEG),Cys plasma levels,[1],only a modest increase
same,plasma levels of Hcy,[1],substantially reduced
same,Hcy and Cys change vs 400MA PEG-htCBS C15S,[2],decrease Hcy levels and increase Cys levels more substantially
same,"specific activity in plasma, LC/MS/MS assay","[3]; single IV 2 mg/kg, 0.083 h",88.865 mU/μl
same,"specific activity in plasma, LC/MS/MS assay","[3]; single IV 2 mg/kg, 0.167 h",81.065 mU/μl
same,"specific activity in plasma, LC/MS/MS assay","[3]; single IV 2 mg/kg, 0.25 h",80.315 mU/μl
same,"specific activity in plasma, LC/MS/MS assay","[3]; single IV 2 mg/kg, 0.5 h",81.815 mU/μl
same,"specific activity in plasma, LC/MS/MS assay","[3]; single IV 2 mg/kg, 1 h",75.415 mU/μl
same,"specific activity in plasma, LC/MS/MS assay","[3]; single IV 2 mg/kg, 2 h",71.765 mU/μl
same,"specific activity in plasma, LC/MS/MS assay","[3]; single IV 2 mg/kg, 4 h",67.415 mU/μl
same,"specific activity in plasma, LC/MS/MS assay","[3]; single IV 2 mg/kg, 8 h",61.715 mU/μl
same,"specific activity in plasma, LC/MS/MS assay","[3]; single IV 2 mg/kg, 24 h",47.815 mU/μl
same,"specific activity in plasma, LC/MS/MS assay","[3]; single IV 2 mg/kg, 72 h",28.915 mU/μl
same,"specific activity in plasma, LC/MS/MS assay","[3]; single IV 2 mg/kg, 120 h",17.180 mU/μl
same,"specific activity in plasma, LC/MS/MS assay","[3]; single IV 2 mg/kg, 192 h",8.490 mU/μl
same,"specific activity in plasma, LC/MS/MS assay","[3]; single SC 2 mg/kg, 2 h",6.479 mU/μl
same,"specific activity in plasma, LC/MS/MS assay","[3]; single SC 2 mg/kg, 4 h",11.108 mU/μl
same,"specific activity in plasma, LC/MS/MS assay","[3]; single SC 2 mg/kg, 8 h",19.913 mU/μl
same,"specific activity in plasma, LC/MS/MS assay","[3]; single SC 2 mg/kg, 48 h",32.538 mU/μl
same,"specific activity in plasma, LC/MS/MS assay","[3]; single SC 2 mg/kg, 72 h",27.888 mU/μl
same,"specific activity in plasma, LC/MS/MS assay","[3]; single SC 2 mg/kg, 96 h",20.768 mU/μl
same,"specific activity in plasma, LC/MS/MS assay","[3]; single SC 2 mg/kg, 120 h",16.958 mU/μl
same,"specific activity in plasma, LC/MS/MS assay","[3]; single SC 2 mg/kg, 192 h",9.063 mU/μl
same,"specific activity in plasma, LC/MS/MS assay","[3]; single SC 2 mg/kg, 240 h",5.908 mU/μl
same,"specific activity in plasma, LC/MS/MS assay","[3]; single SC 2 mg/kg, 336 h",2.273 mU/μl
same,"specific activity in plasma, LC/MS/MS assay","[3]; single SC 6 mg/kg, 1 h",3.065 mU/μl
same,"specific activity in plasma, LC/MS/MS assay","[3]; single SC 6 mg/kg, 2 h",7.640 mU/μl
same,"specific activity in plasma, LC/MS/MS assay","[3]; single SC 6 mg/kg, 4 h",18.365 mU/μl
same,"specific activity in plasma, LC/MS/MS assay","[3]; single SC 6 mg/kg, 8 h",41.090 mU/μl
same,"specific activity in plasma, LC/MS/MS assay","[3]; single SC 6 mg/kg, 24 h",85.190 mU/μl
same,"specific activity in plasma, LC/MS/MS assay","[3]; single SC 6 mg/kg, 48 h",86.090 mU/μl
same,"specific activity in plasma, LC/MS/MS assay","[3]; single SC 6 mg/kg, 72 h",74.840 mU/μl
same,"specific activity in plasma, LC/MS/MS assay","[3]; single SC 6 mg/kg, 96 h",59.940 mU/μl
same,"specific activity in plasma, LC/MS/MS assay","[3]; single SC 6 mg/kg, 120 h",56.340 mU/μl
same,"specific activity in plasma, LC/MS/MS assay","[3]; single SC 6 mg/kg, 192 h",24.190 mU/μl
same,"specific activity in plasma, LC/MS/MS assay","[3]; single SC 6 mg/kg, 240 h",14.440 mU/μl
same,"specific activity in plasma, LC/MS/MS assay","[3]; single SC 6 mg/kg, 336 h",4.784 mU/μl
